The results in this text go back to paper PMC8078012 (Cell systems, 2020).

The target of this assay is MBP-GSK3β-HA-His (human, UniProt P49841 1-420, phosphotyrosine at 216 (activation loop)). Put plainly: BLI. On the technique in general: In BLI a coated tip is dipped into the sample, and binding shifts an interference pattern.
MBP-GSK3β-HA-His, sequence (P49841 whole entry): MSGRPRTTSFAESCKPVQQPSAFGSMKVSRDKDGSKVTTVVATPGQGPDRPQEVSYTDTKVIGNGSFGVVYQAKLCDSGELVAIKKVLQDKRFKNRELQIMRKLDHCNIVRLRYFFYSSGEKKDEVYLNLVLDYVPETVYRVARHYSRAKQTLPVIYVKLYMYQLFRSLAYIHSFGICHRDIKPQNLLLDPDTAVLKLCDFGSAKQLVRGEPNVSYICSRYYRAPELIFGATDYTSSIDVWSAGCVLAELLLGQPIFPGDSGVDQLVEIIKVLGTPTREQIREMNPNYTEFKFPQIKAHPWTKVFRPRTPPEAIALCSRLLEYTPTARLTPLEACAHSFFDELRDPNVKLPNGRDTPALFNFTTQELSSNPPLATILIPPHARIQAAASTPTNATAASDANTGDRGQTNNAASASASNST

B1: MBP-Axin_(384-518)-His (miniAxin) (domain or fragment, human, UniProt O15169-2 384-518, looked up)
chain: EPQKFAEELIHRLEAVQRTREAEEKLEERLKRVRMEEEGEDGDPSSGPPGPCHKLPPAPAWHHFPPRCVDMGCAGLRDAHEENPESILDEHVQRVLRTPGRQSPGPGHRSPDSGHVAKMPVALGGAASGHGKHVP
modifications: biotin (NHS-PEG4-biotin, molar coupling ratio 1:1) where it was immobilised (assay with GSK3β)
B1 displayed a dissociation constant (Kd) of 16 nM.

The Kd is the concentration at which binding is half-saturated. Low readings indicate tighter binding, high ones weaker binding.
